Residue numbers refer to the chain shown, from its start. Where two headings read alike, the source gives them in different places.
Tests used:
human TIGIT = biological target: T1, human TIGIT (human, UniProt Q495A1 22-141, limits assumed); test: monovalent affinity of the hTIGIT IgGs; method not named in Example 14
T1 construct: also called hTIGIT
T1 sequence (looked up): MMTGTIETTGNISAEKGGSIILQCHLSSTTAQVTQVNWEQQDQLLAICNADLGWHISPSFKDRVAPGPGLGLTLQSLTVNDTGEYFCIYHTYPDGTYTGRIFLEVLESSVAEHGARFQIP

CRTH2R [1] = biological target: T2, CRTH2R (UniProt Q9Y5Y4 1-395, limits assumed); test: cell-based or functional assay
T2 sequence (looked up): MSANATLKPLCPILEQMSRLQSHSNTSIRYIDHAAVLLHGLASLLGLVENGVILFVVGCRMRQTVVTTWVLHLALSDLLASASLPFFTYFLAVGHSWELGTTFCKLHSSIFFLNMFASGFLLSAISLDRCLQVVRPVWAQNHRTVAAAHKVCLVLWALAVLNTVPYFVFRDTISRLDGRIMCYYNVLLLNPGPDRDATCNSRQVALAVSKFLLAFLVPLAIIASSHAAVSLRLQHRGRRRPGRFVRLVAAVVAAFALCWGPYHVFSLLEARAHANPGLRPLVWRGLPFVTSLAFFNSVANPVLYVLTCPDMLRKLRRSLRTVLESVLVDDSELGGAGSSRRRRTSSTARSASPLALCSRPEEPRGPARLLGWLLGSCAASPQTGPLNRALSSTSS

CRTH2R [2] = biological target: T2, CRTH2R; test: flow cytometry (MFI), CHO CRTH2R-positive cells against parental CHO cells; same panel as in FIG. 15E; grey = CRTH2R cells, black = parental cells (no legend on the panel)
Method: (§1) Cell binding of anti-CRTH2R antibodies was determined by testing on CHO CRTH2R-positive cells (GFP+) and parental CHO cells (GFP−), comparing parental negative and target positive cells to rule out false-positives. Antibodies as listed in Table 14A were titrated starting at 100 nM (15 ug/mL) with 3-fold titrations, for a total of 8 points. Two antibodies (gPCR-51 and gPCR-52) were used as a positive control.

CRTH2R [3] = biological target: T2, CRTH2R; test: flow cytometry (MFI), CHO CRTH2R-positive cells against parental CHO cells, 3-fold titration from 100 nM; grey = CRTH2R cells, black = parental cells (no legend on the panel)
Method: as §1

hCRTH2R [4] = biological target: T3, hCRTH2R (human, UniProt Q9Y5Y4 1-395); test: cell-based or functional assay
T3 sequence (looked up): T2 sequence (looked up)

hCRTH2R [5] = biological target: T3, hCRTH2R; test: flow cytometry (MFI) cell binding titration, upper grey curve; cell lines not labelled on the sheet
hCRTH2R [6] = biological target: T3, hCRTH2R; test: flow cytometry (MFI) cell binding titration; number in grey print, taken with the upper grey curve; the sheet does not label the cell lines of the two curves
hCRTH2R [7] = biological target: T3, hCRTH2R; test: cell-based or functional assay; remark: listed apart in the source
hCRTH2R [8] = biological target: T3, hCRTH2R; test: flow cytometry (MFI) cell binding titration; number in grey print, taken with the upper grey curve; the sheet does not label the cell lines of the two curves; remark: listed apart in the source
hCRTH2R [9] = biological target: T3, hCRTH2R; test: cell-based or functional assay; remark: listed apart in the source
hCRTH2R [10] = biological target: T3, hCRTH2R; test: flow cytometry (MFI) cell binding titration; number in grey print, taken with the upper grey curve; the sheet does not label the cell lines of the two curves; remark: listed apart in the source
CRTH2R [11] = biological target: T2, CRTH2R; test: flow cytometry (MFI), CHO CRTH2R-positive cells against parental CHO cells; same panel as in FIG. 15B; grey = CRTH2R cells, black = parental cells (no legend on the panel)
Method: as §1

CRTH2R [12] = biological target: T2, CRTH2R; test: cell-based or functional assay; remark: listed apart in the source
CRTH2R [13] = biological target: T2, CRTH2R; test: flow cytometry (MFI), titration 0.05-100 nM on CRTH2R cells against parent cells; no legend on the panel: grey curve and grey EC50 taken as the CRTH2R cells, black (ND) as the parent cells

B1: TIGIT-55-06 (antibody, V domains shown)
VH: EVQLLESGGGLVQPGGSLRLSCAASGFTFSRYTMNWVRQAPGKGLEWVSGISGSGGGAYYADSVKGRFTISRDNSKNTLYLQMNSLRAEDTAVYYCARNSYGPPRSFGMDVWGQGTLVTVSS
VL: DIQMTQSPSSLSASVGDRVTITCRASQSISKYLNWYQQKPGKAPKLLIYGASSLRGGVPSRFSGSGSGTDFTLTISSLQPEDFATYYCQQSYRPPLTFGGGTKVEIK
notes: hTIGIT IgG
Kd (human TIGIT): 153 nM

B2: TIGIT-55-07 (antibody, V domains shown)
VH: EVQLLESGGGLVQPGGSLRLSCAASGFTFSSYGMTWVRQAPGKGLEWVSAISGRGSSTYYADSVKGRFTISRDNSKNTLYLQMNSLRAEDTAVYYCARTPYRSGWADYWGQGTLVTVSS
VL: B1 VL with S28N, S30K, K31T, G50A, R55H, G56T, S91T, R93S, P94I, L96Q
notes: hTIGIT IgG
Kd (human TIGIT): 231 nM

B3: TIGIT-55-13 (antibody, V domains shown)
VH: EVQLLESGGGLVQPGGSLRLSCAASGFTFSTYGMNWVRQAPGKGLEWVSTISGSGGSTYFADSVKGRFTISRDNSKNTLYLQMNSLRAEDTAVYYCARNSGWFMPFDYWGQGTLVTVSS
VL: B1 VL with A25T, K31T, G50A, A51T, S53R, R55Q, G56S, R93T, P94T
notes: hTIGIT IgG
Kd (human TIGIT): 112 nM

B4: TIGIT-55-14 (antibody, V domains shown)
VH: EVQLLESGGGLVQPGGSLRLSCAASGFMFSRYAMSWVRQAPGKGLEWVSSISGSGGTTYYADSVKGRFTISRDNSKNTLYLQMNSLRAEDTAVYYCARRGSGWYIDSWGQGTLVTVSS
VL: B1 VL with I29V, K31R, A51S, S53N, R55Q, G56S, Q90E, R93S, P94T, L96F
notes: hTIGIT IgG
Kd (human TIGIT): 139 nM

B5: CRTH2-50 (antibody, V domains shown)
VH: QVQLVQSGAEVKKPGSSVKVSCKASGGTFSSYALSWVRKAPGQGLEWMGGTIPIFGTVNYAQKFQGRVTITADESTSTAYMELSSLRSEDTAVYYCARANQHFTRVIGQPSPAVPSRGYIYHGYHYYGMDVWGQGTLVTVSS
VL: QSALTQPASVSGSPGQSITISCTGTSSDIGGYNFVSWYQQHPGKAPKLMIYDVSNRPQGVSNRFSGSKSGNTASLTISGLQAEDEADYYCSSYTSSNTYVVFGGGTKLTVL
notes: CRTH2R IgG
IC50 fold difference of the PGD2 dose response (cAMP) with 100 nM IgG (CRTH2R [1]): > 2 fold | EC50 (CRTH2R [2]): 19.6 nM | EC50 (CRTH2R [3]): 19.6 nM

B6: CRTH2-48-3 (antibody, V domains shown)
VH: EVQLVESGGGLVQAGGSLRLSCAASGSIFRINAMGWFRQAPGKEREGVAAINNFGTTKYADSVKGRFTISADNAKNTVYLQMNSLKPEDTAVYYCAAVRWGPRNDDRYDWGQGTQVTVSS
VL: DIQMTQSPSSLSASVGDRVTITCRASQSISSDLNWYQQKPGKAPKLLIYFASGLQSGVPSRFSGSGSGTDFTLTISSLQPEDFATYYCQQSYSSPLTFGGGTKVEIKR
notes: CRTH2R immunoglobulin (IgG); also called CRTH2-48-03
IC50 of PGD2 in the CRTH2 DiscoverX cAMP assay after 200nM IgG pre-incubation (+ no Ab: 0.2487), the axis reads PGD2 (hCRTH2R [4]): 0.356 nM | EC50 (read off the curve) (hCRTH2R [5]): ~2 nM | EC50 (hCRTH2R [6]): 0.579 nM

B7: CRTH2-48-21 (antibody, V domains shown)
VH: EVQLVESGGGLVQAGGSLRLSCAASGSFFSINAMGWFRQAPGKEREFVAGITRSGVSTSYADSVKGRFTISADNAKNTVYLQMNSLKPEDTAVYYCAAHRIVVGGTSVGDWRWGQGTQVTVSS
VL: B6 VL with A25T, S31N, D32Y, F50A, A51T, G53S, Q55E, S94T, P95L
notes: CRTH2R immunoglobulin (IgG)
IC50 of PGD2 in the CRTH2 DiscoverX cAMP assay after 200nM IgG pre-incubation (+ no Ab: 0.4559), the axis reads PGD2 (hCRTH2R [7]): 0.567 nM | EC50 (hCRTH2R [8]): 1.32 nM

B8: CRTH2-48-27 (antibody, V domains shown)
VH: B6 VH with R30H, D72N, Q115L
VL: B6 VL with S31R, D32Y, N34H, F50G, G53R, Q55E, Q89R, S94T, L96W
notes: CRTH2R immunoglobulin (IgG)
IC50 of PGD2 in the CRTH2 DiscoverX cAMP assay after 200nM IgG pre-incubation (+ no Ab: 0.4559), the axis reads PGD2 (hCRTH2R [9]): 0.407 nM | EC50 (hCRTH2R [10]): 0.859 nM

B9: CRTH2-27 (antibody, V domains shown)
VH: QVQLVESGGGVVQPGRSLRLSCAASGFTFDNYGMHWVRQAPGKGLEWVAVISYEGSNKKYADSVKGRFTISRDNSKNTLYLQMNSLRAEDTAVYYCARDMYYDFGSIYGEDVVGELPEVVPADDAFDIWGQGTLVTVSS
VL: QSALTQPASVSGSPGQSITISCTGTSNDVGAYNFVSWYQQHPGKAPKLMIYDISNRPSGVSNRFSGSKSGNTASLTISGLQAEDEADYYCSSYTRSNTRVFGGGTKLTVL
notes: CRTH2R IgG
IC50 fold difference of the PGD2 dose response (cAMP) with 100 nM IgG (CRTH2R [1]): > 2 fold | EC50 (CRTH2R [11]): 42 nM | EC50 (CRTH2R [3]): 42 nM

B10: TIGIT-55-08 (antibody, V domains shown)
VH: EVQLLESGGGLVQPGGSLRLSCAASGFMFSDYAMSWVRQAPGKGLEWVSGISGSGGYTYYADSVKGRFTISRDNSKNTLYLQMNSLRAEDTAVYYCTRSWYYYYGMDVWGQGTLVTVSS
VL: DIQMTQSPSSLSASVGDRVTITCRAGQSIRSYLNWYQQKPGKAPKLLIYASSNLQSGVPSRFSGSGSGTDFTLTISSLQPEDFATYYCQQSYSTPLLTFGGGTKVEIK
notes: hTIGIT IgG
Kd (human TIGIT): 113 nM

B11: TIGIT-55-11 (antibody, V domains shown)
VH: EVQLLESGGGLVQPGGSLRLSCAASGFTFTNYGMSWVRQAPGKGLEWVSSISGSGSTTYYADSVKGRFTISRDNSKNTLYLQMNSLRAEDTAVYYCASVKRWGYYFNWWGQGTLVTVSS
VL: DIQMTQSPSSLSASVGDRVTITCRASQNINYYLNWYQQKPGKAPKLLIYGASSLQNGVPSRFSGSGSGTDFTLTISSLQPEDFATYYCQQSYITPYTGGGTKVEIK
notes: hTIGIT IgG
Kd (human TIGIT): 327 nM

B12: CRTH2-9 (antibody, V domains shown)
VH: QVQLVQSGAEVKKPGSSVKVSCKASGGTFSSYAISWVRQAPGQGLEWMGGIIPIFGTANYAQKFQGRVTITADESTSTAYMELSSLRSEDTAVYYCARDMYYDFWLGDQSTGSLIGAEVVPADDAFDIWGQGTLVTVSS
VL: QSVLTQPPSVSAAPGQKVTISCSGSTSNIGNNYVSWYQQLPGTAPKLLIYENDERPSGIPDRFSGSKSGTSATLGITGLQTGDEADYYCATWDTRLSAVVFGGGTKLTVL
notes: CRTH2R IgG
IC50 fold difference of the PGD2 dose response (cAMP) with 100 nM IgG (CRTH2R [1]): > 2 fold | antagonist activity in PGD2-induced cAMP assay at 33 nM IgG (CRTH2R [1]): > 20% | EC50 (CRTH2R [11]): 14.9 nM | EC50 (CRTH2R [3]): 14.9 nM

B13: TIGIT-55-12 (antibody, V domains shown)
VH: EVQLLESGGGLVQPGGSLRLSCAASGFTLSSYAMAWVRQAPGKGLEWVSTLSGSGGSTYYADSVKGRFTISRDNSKNTLYLQMNSLRAEDTAVYYCARVRVGAYDAFDIWGQGTLVTVSS
VL: DIQMTQSPYSLSASVGDRVTITCRASQSIRRYLNWYQQKPGKAPKLLIYRASTLQTGVPSRFSGSGSGTDFTLTISSLQPEDFATYYCQQTYSSPFTFGGGTKVEIK
notes: hTIGIT IgG
Kd (human TIGIT): 148 nM

B14: CRTH2-41-51 (Fc fusion, not shown: a dimerising Fc or GST)
chain: EVQLVESGGGLVQPGGSLRLSCAASGGIFRFNAMGWFRQAPGKERELVAGISGSGGDTYYADSVKGRFTISADNSKNTAYLQMNSLKPEDTAVYYCAAFRGIMRPDWGQGTLVTVSS
IC50 fold diff. of the PGD2 dose response in the CRTH2 DiscoverX allosteric cAMP assay (+ CRTH2-41-51-VHH against + no Ab) (CRTH2R [12]): 2.18 fold | EC50 (CRTH2R [13]): 0.181 nM

— patent US20210102195A1 (TWIST BIOSCIENCE, published 2021)
